The target in assay [1] is H2A.Z/H3K9cme3 mono-nucleosome (208-bp 601 Widom DNA) (mouse | Xenopus laevis) (UniProt P0C0S6). The assay is described as follows: AUC.
The target is the same in assay [2]. The assay is described as follows: AUC. This is another data set of the same source.

Our source for the Kd and stoichiometry N (HP1α dimers per nucleosome) values is PMC11560701.

Like-named read-outs stand apart in the source and are kept apart here.

Chain of human HP1α (heterochromatin protein 1 alpha), full length (P45973 whole entry): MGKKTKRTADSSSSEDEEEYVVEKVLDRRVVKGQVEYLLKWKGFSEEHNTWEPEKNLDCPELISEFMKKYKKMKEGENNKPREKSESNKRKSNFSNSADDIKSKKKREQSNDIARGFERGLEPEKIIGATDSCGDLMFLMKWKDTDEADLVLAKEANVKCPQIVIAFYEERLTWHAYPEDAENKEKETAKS

For “human HP1α (heterochromatin protein 1 alpha), full length (from UniProt P45973 1-191) (natural protein)”, in assay [1], the Kd (in general, the concentration at which binding is half-saturated) worked out at 1 µM and the stoichiometry N (HP1α dimers per nucleosome) came out at 2. The Kd in assay [2] is 850 µM.
